Here are results for 4 molecules from patent publication US20150086555A1 (THERACLONE SCIENCES, published 2015).

Assay [1] deals with recombinant soluble homotrimeric HA of A/California/4/09 (H1N1) (Influenza A virus …). The experiment in a line: trimeric HA microarray, transfection supernatant set 3.
Assay [2] has as its target recombinant soluble homotrimeric HA of A/Solomon Islands/3/06 (H1N1) (Influenza A virus A/Solomon …). The assay is described as above.
For assay [3], the target named is recombinant soluble homotrimeric HA of A/South Carolina/1/18 (H1N1) (Influenza A virus A/South Carolina/1/18 …). The assay is described as above.
Assay [4] concerns the target recombinant soluble homotrimeric HA of A/Japan/305/57 (H2N2) (Influenza A virus A/Japan/305/1957(H2N2)). Described as above.
Assay [5] has as its target recombinant soluble homotrimeric HA of A/Wisconsin/67/05 (H3N2) (Influenza A virus …). The assay is described as above.
In assay [6] the target is recombinant soluble homotrimeric HA of A/Vietnam/1203/04 (H5N1) (Influenza A virus …). The description is as above.
Assay [7] addresses recombinant soluble homotrimeric HA of A/Indonesia/5/05 (H5N1) (Influenza A virus …). Described as above.
For assay [8], the target named is recombinant soluble homotrimeric HA of A/Egypt/3300-NAMRU3/08 (H5N1) (Influenza A virus …). Described as above.
The target in assay [9] is recombinant soluble homotrimeric HA of A/Anhui/1/05 (H5N1) (Influenza A virus A/Anhui/1/2005(H5N1)). The assay is described as above.
In assay [10] the target is recombinant soluble homotrimeric HA of A/chicken/Vietnam/NCVD-016/08 (H5N1) (Influenza A virus …). Described as above.
The target in assay [11] is recombinant soluble homotrimeric HA of A/northern shoveler/California/HKWF115/07 (H6) (Influenza A virus A/northern …). Described as above.
Assay [12] has as its target recombinant soluble homotrimeric HA of A/Netherlands/219/03 (H7N7) (Influenza A virus …). Described as above.
Assay [13] addresses recombinant soluble homotrimeric HA of A/duck/Yangzhou/02/05 (H8N4) (Influenza A virus …). The description is as above.
The target of assay [14] is recombinant soluble homotrimeric HA of A/Hong Kong/2108/03 (H9N2) (Influenza A virus A/HK/2108/2003(H9N2)). The assay is described as above.
The target in assay [15] is recombinant soluble homotrimeric HA of A/Hong Kong/1073/99 (H9N2) (Influenza A virus A/Hong Kong/1073/99 …). Described as above.
The target of assay [16] is recombinant soluble homotrimeric HA of A/California/4/09 (H1N1) (Influenza A virus …). The experiment in a line: HA microarray, BCC supernatant.
In assay [17] the target is recombinant soluble homotrimeric HA of A/Solomon Islands/3/06 (H1N1) (Influenza A virus A/Solomon …). The experiment in a line: HA microarray, BCC supernatant.
The target in assay [18] is recombinant soluble homotrimeric HA of A/Japan/305/57 (H2N2) (Influenza A virus A/Japan/305/1957(H2N2)). The experiment in a line: HA microarray, BCC supernatant.
The target in assay [19] is recombinant soluble homotrimeric HA of A/Wisconsin/67/05 (H3N2) (Influenza A virus …). The experiment in a line: HA microarray, BCC supernatant.
Assay [20] addresses recombinant soluble homotrimeric HA of A/swine/Ontario/01911-2/99 (H4N6) (Influenza A virus …). The assay can be described thus: HA microarray, BCC supernatant.
Assay [21] deals with recombinant soluble homotrimeric HA of A/Vietnam/1203/04 (H5N1) (Influenza A virus …). The experiment in a line: HA microarray, BCC supernatant.
Assay [22] concerns the target recombinant soluble homotrimeric HA of A/Indonesia/5/05 (H5N1) (Influenza A virus …). The experiment in a line: HA microarray, BCC supernatant.
The target of assay [23] is recombinant soluble homotrimeric HA of A/Egypt/3300-NAMRU3/08 (H5N1) (Influenza A virus …). The assay can be described thus: HA microarray, BCC supernatant.
In assay [24] the target is recombinant soluble homotrimeric HA of A/Anhui/1/05 (H5N1) (Influenza A virus A/Anhui/1/2005(H5N1)). The assay can be described thus: HA microarray, BCC supernatant.
Assay [25] concerns the target recombinant soluble homotrimeric HA of A/chicken/Vietnam/NCVD-016/08 (H5N1) (Influenza A virus …). The experiment in a line: HA microarray, BCC supernatant.
Assay [26] deals with recombinant soluble homotrimeric HA of A/northern shoveler/California/HKWF115/07 (H6) (Influenza A virus A/northern …). The experiment in a line: HA microarray, BCC supernatant.
Assay [27] has as its target recombinant soluble homotrimeric HA of A/Netherlands/219/03 (H7N7) (Influenza A virus …). The assay can be described thus: HA microarray, BCC supernatant.
In assay [28] the target is recombinant soluble homotrimeric HA of A/duck/Yangzhou/02/05 (H8N4) (Influenza A virus …). The experiment in a line: HA microarray, BCC supernatant.
The target of assay [29] is recombinant soluble homotrimeric HA of A/Hong Kong/2108/03 (H9N2) (Influenza A virus A/HK/2108/2003(H9N2)). The experiment in a line: HA microarray, BCC supernatant.
For assay [30], the target named is recombinant homotrimeric HA A/California/4/09 H1N1 (Influenza A virus …). The assay can be described thus: protein microarray, purified IgG, trimeric HA.
The target in assay [31] is recombinant homotrimeric HA A/Solomon Islands/3/06 H1N1 (Influenza A virus A/Solomon …). The experiment in a line: protein microarray, purified IgG, trimeric HA.
The target of assay [32] is recombinant homotrimeric HA A/South Carolina/1/18 H1N1 (Influenza A virus A/South Carolina/1/18 …). The assay can be described thus: protein microarray, purified IgG, trimeric HA.
In assay [33] the target is recombinant homotrimeric HA A/Japan/305/57 H2N2 (Influenza A virus A/Japan/305/1957(H2N2)). The assay can be described thus: protein microarray, purified IgG, trimeric HA.
Assay [34] addresses recombinant homotrimeric HA A/Wisconsin/67/05 H3N2 (Influenza A virus …). The assay can be described thus: protein microarray, purified IgG, trimeric HA.
For assay [35], the target named is recombinant homotrimeric HA A/Vietnam/1203/04 H5N1 (Influenza A virus …). The experiment in a line: protein microarray, purified IgG, trimeric HA.
The target of assay [36] is recombinant homotrimeric HA A/Indonesia/5/05 H5N1 (Influenza A virus …). The assay can be described thus: protein microarray, purified IgG, trimeric HA.
For assay [37], the target named is recombinant homotrimeric HA A/Egypt/3300-NAMRU3/08 H5N1 (Influenza A virus …). The assay can be described thus: protein microarray, purified IgG, trimeric HA.
Assay [38] has as its target recombinant homotrimeric HA A/Anhui/1/05 H5N1 (Influenza A virus A/Anhui/1/2005(H5N1)). The assay can be described thus: protein microarray, purified IgG, trimeric HA.
For assay [39], the target named is recombinant homotrimeric HA A/chicken/Vietnam/NCVD-016/08 H5N1 (Influenza A virus …). The experiment in a line: protein microarray, purified IgG, trimeric HA.
In assay [40] the target is recombinant homotrimeric HA A/Hong Kong/156/97 H5N1 (Influenza A virus A/Hong Kong/156/97 …). The assay can be described thus: protein microarray, purified IgG, trimeric HA.
In assay [41] the target is recombinant homotrimeric HA A/northern shoveler/California/HKWF115/07 H6N4 (Influenza A virus A/northern …). The experiment in a line: protein microarray, purified IgG, trimeric HA.
Assay [42] deals with recombinant homotrimeric HA A/Netherlands/219/03 H7N7 (Influenza A virus …). The experiment in a line: protein microarray, purified IgG, trimeric HA.
Assay [43] deals with recombinant homotrimeric HA A/Hong Kong/2108/03 H9N2 (Influenza A virus A/HK/2108/2003(H9N2)). The experiment in a line: protein microarray, purified IgG, trimeric HA.
Assay [44] has as its target recombinant homotrimeric HA A/Hong Kong/1073/99 H9N2 (Influenza A virus A/Hong Kong/1073/99 …). The assay can be described thus: protein microarray, purified IgG, trimeric HA.
Assay [45] deals with recombinant homotrimeric HA A/swine/Ontario/01911-2/99 H4N6 (Influenza A virus …). The assay can be described thus: protein microarray, purified IgG, trimeric HA.
The target in assay [46] is recombinant homotrimeric HA A/duck/Yangzhou/02/05 H8N4 (Influenza A virus …). The assay can be described thus: protein microarray, purified IgG, trimeric HA.

B1: TCN-533 (5256_A17a) (antibody, V domains shown)
VH: QVQLVQSGADVKKPGSSVTVSCKASGGSFSNYGINWVRQAPGQGLEWMGGIIPLINAPNYAPKFQGRVTITADMFSNIVSLQLTSLRTDDTAVYYCARRKMTTAIDYWGQGTLVTVSS
VL: QPVLTQPPSASASLGASVTLTCTLSSAYSNYKVDWYQQRPGKGPRFVMRVGTGGIVGSKGDGIPDRFSVLGSGLNRYLTIKNIQEEDESDYHCGADHGSGSNFVSPYVFGGGTKLTVL
As to B1, the “Trimeric HA Binding: RLU” value in assay [1] stood at 6880 RLU; in assay [2], 15500 RLU; in [3] it was 16400 RLU; in assay [4], 18600 RLU; in assay [5] it was 16100 RLU; in [6] it was 11700 RLU. In addition, the “Trimeric HA Binding: RLU” value in [7] was 28300 RLU; in assay [8], 18600 RLU; in [9], 301 RLU; in assay [10], 24600 RLU; in assay [11] it was 7810 RLU; in assay [12], 209 RLU. In addition, the “Trimeric HA Binding: RLU” value in assay [13] is 711 RLU; in assay [14], 33 RLU; in [15] it was 23800 RLU.

B2: TCN-533 (5256_A17a) (antibody, V domains shown)
VH: B1 VH
VL: B1 VL
As for B2, the “Trimeric HA Binding: RLU” value was determined as 29300 RLU in assay [16]; 39200 RLU in assay [17]; 10800 RLU in [18]; 13800 RLU in [19]; 1580 RLU in [20]; 5680 RLU in [21]. The “Trimeric HA Binding: RLU” value in assay [22] amounted to 44100 RLU; in [23] it was 34300 RLU; in [24], 8060 RLU; in assay [25], 47700 RLU; in assay [26], 41400 RLU; in [27] it was 2470 RLU. Moreover, the “Trimeric HA Binding: RLU” value in assay [28] was determined as 24700 RLU; in [29] it was 172 RLU.

B3: TCN-533 (5256_A17a) (antibody, V domains shown)
VH: B1 VH
VL: B1 VL
Turning to B3, the “Trimeric HA Binding: RLU” value in assay [30] was 24000 RLU; in assay [31], 12000 RLU; in [32] it was 8670 RLU; in [33], 23400 RLU; in assay [34], 308 RLU; in assay [35] it was 26900 RLU. Besides, the “Trimeric HA Binding: RLU” value in assay [36] came out at 23100 RLU; in assay [37] it was 20600 RLU; in [38], 5650 RLU; in [39] it was 5470 RLU; in assay [40], 13200 RLU; in assay [41] it was 20400 RLU. Further, the “Trimeric HA Binding: RLU” value came to 712 RLU in assay [42], 164 RLU in assay [43] and 5810 RLU in assay [44].

B4: TCN-556 (5089_K12) (antibody, V domains shown)
VH: QVQLVQSGAEVKKPGASVKVSCKASGYTFIGYDMHWVRQAPGQGLEWMGWINAKRGGTNYAQKFQGRVTMTRDTSISTAYMELNSLRSDDTAVYYCARGVGSRTTIFGVLNPEFDYWGQGTLVTVSS
VL: QSALTQPPSASGSPGQSVTISCTGSSSDVGGYDYVSWYQQHPGKAPKLLIYEVTKRPSGVPDRFSGSKSGNTASLTVSGLQAEDEADYYCSSYAGNYNHVFGPGTKVTVL
For the molecule B4, the “Trimeric HA Binding: RLU” value in assay [30] came out at 25800 RLU; in assay [31], 24300 RLU; in assay [32], 21000 RLU; in assay [33], 25800 RLU; in assay [34], 2360 RLU; in assay [45] it was 24100 RLU. In addition, the “Trimeric HA Binding: RLU” value was found to be 21500 RLU in assay [35]; 23000 RLU in assay [36]; 24800 RLU in assay [37]; 26900 RLU in [38]; 22400 RLU in assay [39]; 18600 RLU in assay [40]. In addition, the “Trimeric HA Binding: RLU” value in assay [41] came out at 25000 RLU; in assay [42] it was 21000 RLU; in assay [46] it was 18300 RLU; in assay [43] it was 25600 RLU; in [44], 995 RLU.
